{"source": "patent US20140370026A1", "biological_target": "CD46 (UniProt P15529)", "sequence (P15529 35-392 limits assumed)": "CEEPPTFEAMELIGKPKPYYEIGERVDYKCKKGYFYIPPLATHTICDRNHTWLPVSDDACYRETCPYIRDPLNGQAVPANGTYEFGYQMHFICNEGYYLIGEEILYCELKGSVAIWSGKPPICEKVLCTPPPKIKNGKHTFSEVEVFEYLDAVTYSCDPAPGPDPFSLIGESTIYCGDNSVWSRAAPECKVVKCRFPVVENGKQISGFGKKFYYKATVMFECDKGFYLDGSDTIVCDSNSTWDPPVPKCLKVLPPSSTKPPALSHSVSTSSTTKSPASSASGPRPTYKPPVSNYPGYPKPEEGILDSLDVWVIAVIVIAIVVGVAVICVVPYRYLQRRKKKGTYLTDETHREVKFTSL", "assay": "cell-based or functional assay"}
{"substance": "anti-CD46 antibody J4.48 (Chemicon International)", "values": [{"measurement": "inhibition of human CMV (BADrUL131) infectivity of ARPE-19 epithelial cells (IE1 immunofluorescence)", "result": 77, "unit": "%"}]}
